Earlier results on one substance are cited in article PMC5493423.

Usually Kd stands for the concentration at which binding is half-saturated.

The test system of the data set is CD31 (protein used for the reported Kd). To be noted: biotin; PBMCs at 1e7 cells/ml, 100 ul, aptamer 30 min at 4 C, then flow cytometry staining buffer; column in APTSCI binding buffer (composition not given). On the technique in general: A flow cytometer gives signals particle by particle.

For “CD31 aptamer, biotinylated (APTSCI CD31-2196BCI)”, the Kd is 1.14 nM.
